Test results: US20260193366A1 (APOGEE THERAPEUTICS, published 2026)
Changes are numbered by the printed parent chain.

T1: human IL-4Rα (human, UniProt P24394 26-232)
T1 construct: also called Hu IL-4Rα; hIL-4Rα
T1 sequence: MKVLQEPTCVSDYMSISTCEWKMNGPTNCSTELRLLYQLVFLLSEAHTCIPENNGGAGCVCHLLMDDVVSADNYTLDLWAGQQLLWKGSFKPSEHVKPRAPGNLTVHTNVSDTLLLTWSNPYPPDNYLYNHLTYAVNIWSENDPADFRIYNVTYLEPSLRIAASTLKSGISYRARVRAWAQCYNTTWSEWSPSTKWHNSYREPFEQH

T2: cynomolgus monkey IL-4Rα (cynomolgus monkey, UniProt P24394 26-231 (human entry), limits assumed)
T2 construct: also called Cyno IL-4Rα; cyIL-4Rα
T2 chain: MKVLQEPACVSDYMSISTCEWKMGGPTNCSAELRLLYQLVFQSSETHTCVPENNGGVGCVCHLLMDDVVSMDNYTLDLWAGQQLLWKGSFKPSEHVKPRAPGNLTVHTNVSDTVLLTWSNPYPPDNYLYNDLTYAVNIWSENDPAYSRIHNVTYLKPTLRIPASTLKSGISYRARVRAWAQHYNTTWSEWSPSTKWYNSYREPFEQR

T3: hIL-4Rα on cells (human, UniProt P24394 26-825)
T3 sequence: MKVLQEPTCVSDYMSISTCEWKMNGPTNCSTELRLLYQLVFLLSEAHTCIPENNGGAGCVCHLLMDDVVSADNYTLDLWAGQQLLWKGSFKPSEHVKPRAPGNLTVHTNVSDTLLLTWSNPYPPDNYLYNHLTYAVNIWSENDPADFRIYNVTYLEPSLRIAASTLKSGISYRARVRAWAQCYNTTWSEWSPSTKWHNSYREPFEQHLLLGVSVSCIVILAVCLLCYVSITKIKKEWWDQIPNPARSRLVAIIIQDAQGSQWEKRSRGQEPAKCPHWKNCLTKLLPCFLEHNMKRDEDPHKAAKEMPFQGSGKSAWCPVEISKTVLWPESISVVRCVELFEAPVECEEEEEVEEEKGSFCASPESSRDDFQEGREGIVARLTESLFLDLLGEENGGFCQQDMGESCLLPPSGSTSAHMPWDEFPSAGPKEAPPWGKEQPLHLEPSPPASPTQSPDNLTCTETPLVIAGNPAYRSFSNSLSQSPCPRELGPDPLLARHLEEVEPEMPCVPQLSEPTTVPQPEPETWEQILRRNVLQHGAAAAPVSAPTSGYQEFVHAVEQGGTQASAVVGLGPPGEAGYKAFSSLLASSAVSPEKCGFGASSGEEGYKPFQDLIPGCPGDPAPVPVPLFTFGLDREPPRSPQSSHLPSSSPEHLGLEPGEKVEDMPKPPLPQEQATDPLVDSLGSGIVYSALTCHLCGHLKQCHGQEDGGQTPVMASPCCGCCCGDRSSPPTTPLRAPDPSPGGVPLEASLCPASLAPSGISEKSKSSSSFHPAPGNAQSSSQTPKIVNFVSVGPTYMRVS

B1: Construct 9 (mAb418) (antibody, IgG4, V domains shown)
VH: EVQLVESGGGLEQPGGSLRLSCAGSGFTFTDFAMTWVRQAPGKGLEWVSSISGSGGNIYYADSVKGRFTISRDNSKNTLYLQMNSLRAEDTAVYYCAKDRLSVTVRPRYYGLDVWGQGTTVTVSS
VL: DIVMTQSPLSLPVTPGEPASISCRSSQSLLYSIGKNYVDWYLQKSGQSPQLLIYLGNNRATGVPDRFSGSGSGTDFTLKISRVEAEDVGFYYCMQALGSPYTFGQGTKLEIK
notes: VH/VL only
B2: Construct 21 (mAb429) (antibody, IgG4, V domains shown)
VH: B1 VH with T30R, D31T, F32Y, L101V, V103I, T104Y
VL: B1 VL with R24T, S25A, K35Y, N57S, N58K, T61S, A96S, G98T
notes: VH/VL only
B3: Construct 19 (mAb427) (antibody, IgG4, V domains shown)
VH: B1 VH with T30R, D31T, F32Y, G56D, I58T, L101V, V103I, V105I
VL: B1 VL with R24T, K35Y, N58K, T61S
notes: VH/VL only
B4: Construct 16 (mAb424) (antibody, IgG4, V domains shown)
VH: B1 VH with T30R, D31T, F32Y, G56D, V105I
VL: B1 VL with R24T, S25A, K35Y, N58K, T61S, A96S, G98T
notes: VH/VL only
B5: Construct 22 (mAb430) (antibody, IgG4, V domains shown)
VH: B1 VH with T30R, G56S, N57S, I58T
VL: B1 VL with L29V, K35Y, N58K, T61S, A96S, G98T
notes: VH/VL only
B6: Construct 17 (mAb425) (antibody, IgG4, V domains shown)
VH: B1 VH with T30R, G56S, N57S, I58T
VL: B1 VL with R24T, S25A, K35Y, N57S, N58K, T61S, L97Y, G98N
notes: VH/VL only
B7: Construct 20 (mAb428) (antibody, IgG4, V domains shown)
VH: B1 VH with T30R, G56D, I58T, V103I
VL: B1 VL with R24T, K35Y, N58K, T61S, A96S, G98Q, S99T, T102V
notes: VH/VL only
B8: Construct 18 (mAb426) (antibody, IgG4, V domains shown)
VH: B1 VH with T30R, G56D, I58T, V103K, V105I
VL: B1 VL with R24T, N58K, T61S, A96S, G98T
notes: VH/VL only
B9: Construct 10 (mAb419) (antibody, IgG4, V domains shown)
VH: B1 VH with T30R, S54D, G56S, I58T, V103K, V105I
VL: B1 VL with K35Y, N58K, T61S
notes: VH/VL only
B10: Construct 11 (mAb420) (antibody, IgG4, V domains shown)
VH: B1 VH with T30R, S54D, G56S, I58T, V103K, V105I
VL: B1 VL with L29V, K35Y, N58K, T61S, A96S, G98Q, S99T
notes: VH/VL only
B11: Construct 12 (mAb421) (antibody, IgG4, V domains shown)
VH: B1 VH with T30R, V103K, V105I
VL: B1 VL with L29V, K35Y, N58K, T61S, A96S, G98T
notes: VH/VL only

These binders were tested against T1, human IL-4Rα (assay: SPR, Carterra LSA;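 also: antibodies captured on an anti-human Fc sensor chip, antigen injected at several concentrations, association and dissociation rates fitted with a 1:1 Langmuir model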).
Experimental: (§1) Binding affinity (KD) of antibodies to human and cynomolgus monkey IL-4Rα was determined through surface plasmon resonance (SPR) using a Carterra LSA. Briefly, an HC30M sensor chip that was previously functionalized with a polyclonal mixture of goat anti-human Fc antibody and used to capture purified antibodies at a level between 100-1000 RLU. […] Regeneration of the chip between different concentrations of antigen was performed with 200 mM phosphoric acid and antibody was captured again as previously described. Association and dissociation rate constants were subsequently determined through fitting to a 1:1 Langmuir binding model using the Kinetics Software from Carterra from which a KD value was derived.

Row | KD Relative to Dupilumab | Kd [nM] | Binder
1 | 0.76 | 0.00862 | B1
2 | 0.76 | 0.00857 | B2
3 | 3.19 | 0.036 | B3
4 | 1.4 | 0.0158 | B4
5 | 0.77 | 0.00866 | B5
6 | 1.49 | 0.0169 | B6
7 | 1.41 | 0.0159 | B7
8 | 2.65 | 0.03 | B8
9 | 1.1 | 0.0125 | B9
10 | 1.17 | 0.0132 | B10
11 | 1.91 | 0.0215 | B11

Biological target: T2, cynomolgus monkey IL-4Rα
Test: SPR, Carterra LSA;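 also: antibodies captured on an anti-human Fc sensor chip, antigen injected at several concentrations, association and dissociation rates fitted with a 1:1 Langmuir model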
Experimental: as §1

Row | KD Relative to Dupilumab | Kd [nM] | Binder
12 | 0.36 | 228 | B1
13 | 0.02 | 14.4 | B2
14 | 0.08 | 50.2 | B3
15 | 0.14 | 89.3 | B4
16 | 0.05 | 28.7 | B5
17 | 0.09 | 58.3 | B6
18 | 0.13 | 80.8 | B7
19 | 0.09 | 58 | B8
20 | 0.18 | 114 | B9
21 | 0.15 | 92.2 | B10
22 | 0.02 | 15.1 | B11

The binders below were run against T3, hIL-4Rα on cells (assay: cell-based or functional assay).

Row | Relative Inhibition of IL-4 induced pSTAT6 IC50 | Relative Inhibition of IL-13 induced pSTAT6 IC50 | Binder
23 | 0.761 relative to dupilumab | 1.31 relative to dupilumab | B1
24 | 0.305 relative to dupilumab | 0.447 relative to dupilumab | B2
25 | 0.844 relative to dupilumab | 0.885 relative to dupilumab | B3
26 | 0.825 relative to dupilumab | 1.41 relative to dupilumab | B4
27 | 0.749 relative to dupilumab | 0.612 relative to dupilumab | B5
28 | 0.876 relative to dupilumab | 0.863 relative to dupilumab | B6
29 | 1.28 relative to dupilumab | 1.86 relative to dupilumab | B7
30 | 0.517 relative to dupilumab | 0.446 relative to dupilumab | B8
31 | 0.599 relative to dupilumab | 1.38 relative to dupilumab | B9
32 | 0.638 relative to dupilumab | 0.924 relative to dupilumab | B10
33 | 0.457 relative to dupilumab | 0.672 relative to dupilumab | B11

Biological target: T3, hIL-4Rα on cells
Test: cell-based or functional assay
Remark: another data set of the same source

Row | Relative Inhibition of IL-4 induced TARC IC50 | Relative Inhibition of IL-13 induced TARC IC50 | Binder
34 | 0.593 relative to dupilumab | 0.942 relative to dupilumab | B1
35 | 0.342 relative to dupilumab | 0.313 relative to dupilumab | B2
36 | 0.756 relative to dupilumab | 0.834 relative to dupilumab | B3
37 | 1.63 relative to dupilumab | 1.03 relative to dupilumab | B4
38 | 0.488 relative to dupilumab | 0.535 relative to dupilumab | B5
39 | 0.491 relative to dupilumab | 0.789 relative to dupilumab | B6
40 | 3.63 relative to dupilumab | 1.83 relative to dupilumab | B7
41 | 0.407 relative to dupilumab | 0.447 relative to dupilumab | B8
42 | 0.556 relative to dupilumab | 0.856 relative to dupilumab | B9
43 | 0.609 relative to dupilumab | 0.877 relative to dupilumab | B10
44 | 0.38 relative to dupilumab | 0.521 relative to dupilumab | B11

Biological target: T3, hIL-4Rα on cells
Test: cell-based or functional assay
Remark: another data set of the same source

Row | Relative Inhibition of IL-4 induced TF-1 Proliferation IC50 | Relative Inhibition of IL-13 induced TF-1 Proliferation IC50 | Binder
45 | 0.503 relative to dupilumab | 1.34 relative to dupilumab | B1
46 | 0.509 relative to dupilumab | 0.498 relative to dupilumab | B2
47 | 0.835 relative to dupilumab | 0.55 relative to dupilumab | B3
48 | 1.04 relative to dupilumab | 1.44 relative to dupilumab | B4
49 | 0.746 relative to dupilumab | 0.495 relative to dupilumab | B5
50 | 0.729 relative to dupilumab | 0.844 relative to dupilumab | B6
51 | 1.12 relative to dupilumab | 1.38 relative to dupilumab | B7
52 | 0.626 relative to dupilumab | 0.606 relative to dupilumab | B8
53 | 0.431 relative to dupilumab | 1.39 relative to dupilumab | B9
54 | 0.455 relative to dupilumab | 1.72 relative to dupilumab | B10
55 | 0.526 relative to dupilumab | 0.87 relative to dupilumab | B11

What follows are binders tested against T3, hIL-4Rα on cells (assay: FACS on HEK293 cells, competitor biotin-hIL-4;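 also: HEK293 cells stably co-expressing hIL-13Rα and hIL-4Rα, stained for 1 h at 4 °C, read-out as mean fluorescence intensity by flow cytometry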).
Experimental: (§2) Briefly, HEK293 previously transduced to stably express both hIL-13Rα and hIL-4Rα were cultured and harvested. Cells were seeded at 200,000 cells in 100 uL per well. Cells were washed and the supernatant discarded. […] The cells were stained in this mixture at 4° C. for 1 hour. […] Cells were incubated 4° C. for 1 hour, protected from light. Cells were then washed and the MFI of cells in each well were recorded by FACS using a BD FACSCanto II. Subsequent data were analyzed using GraphPad Prism.

Row | Relative Blockade of IL-4 Binding IC50 | Binder
56 | 0.757 relative to dupilumab | B1
57 | 0.749 relative to dupilumab | B2
58 | 0.867 relative to dupilumab | B3
59 | 0.895 relative to dupilumab | B4
60 | 0.829 relative to dupilumab | B5
61 | 1.11 relative to dupilumab | B6
62 | 1.44 relative to dupilumab | B7
63 | 0.85 relative to dupilumab | B8
64 | 0.992 relative to dupilumab | B9
65 | 0.977 relative to dupilumab | B10
66 | 1.07 relative to dupilumab | B11

Each binder was assayed against T3, hIL-4Rα on cells (assay: FACS on HEK293 cells, competitor biotin-hIL-13;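 also: stably transduced cells co-expressing both receptor chains, stained cold, with cell-bound signal read as mean fluorescence intensity by flow cytometry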).
Experimental: as §2

Row | Relative Blockade of IL-13 Binding IC50 | Binder
67 | 0.911 relative to dupilumab | B1
68 | 0.706 relative to dupilumab | B2
69 | 1.02 relative to dupilumab | B3
70 | 0.904 relative to dupilumab | B4
71 | 0.785 relative to dupilumab | B5
72 | 1.17 relative to dupilumab | B6
73 | 1.14 relative to dupilumab | B7
74 | 0.813 relative to dupilumab | B8
75 | 0.922 relative to dupilumab | B9
76 | 0.928 relative to dupilumab | B10
77 | 0.921 relative to dupilumab | B11
